Target: recombinant strep-tagged apo-APC/C, dephosphorylated (UniProt Q9H1A4)
Sequence of UniProt Q9H1A4 (Q9H1A4 whole entry, looked up): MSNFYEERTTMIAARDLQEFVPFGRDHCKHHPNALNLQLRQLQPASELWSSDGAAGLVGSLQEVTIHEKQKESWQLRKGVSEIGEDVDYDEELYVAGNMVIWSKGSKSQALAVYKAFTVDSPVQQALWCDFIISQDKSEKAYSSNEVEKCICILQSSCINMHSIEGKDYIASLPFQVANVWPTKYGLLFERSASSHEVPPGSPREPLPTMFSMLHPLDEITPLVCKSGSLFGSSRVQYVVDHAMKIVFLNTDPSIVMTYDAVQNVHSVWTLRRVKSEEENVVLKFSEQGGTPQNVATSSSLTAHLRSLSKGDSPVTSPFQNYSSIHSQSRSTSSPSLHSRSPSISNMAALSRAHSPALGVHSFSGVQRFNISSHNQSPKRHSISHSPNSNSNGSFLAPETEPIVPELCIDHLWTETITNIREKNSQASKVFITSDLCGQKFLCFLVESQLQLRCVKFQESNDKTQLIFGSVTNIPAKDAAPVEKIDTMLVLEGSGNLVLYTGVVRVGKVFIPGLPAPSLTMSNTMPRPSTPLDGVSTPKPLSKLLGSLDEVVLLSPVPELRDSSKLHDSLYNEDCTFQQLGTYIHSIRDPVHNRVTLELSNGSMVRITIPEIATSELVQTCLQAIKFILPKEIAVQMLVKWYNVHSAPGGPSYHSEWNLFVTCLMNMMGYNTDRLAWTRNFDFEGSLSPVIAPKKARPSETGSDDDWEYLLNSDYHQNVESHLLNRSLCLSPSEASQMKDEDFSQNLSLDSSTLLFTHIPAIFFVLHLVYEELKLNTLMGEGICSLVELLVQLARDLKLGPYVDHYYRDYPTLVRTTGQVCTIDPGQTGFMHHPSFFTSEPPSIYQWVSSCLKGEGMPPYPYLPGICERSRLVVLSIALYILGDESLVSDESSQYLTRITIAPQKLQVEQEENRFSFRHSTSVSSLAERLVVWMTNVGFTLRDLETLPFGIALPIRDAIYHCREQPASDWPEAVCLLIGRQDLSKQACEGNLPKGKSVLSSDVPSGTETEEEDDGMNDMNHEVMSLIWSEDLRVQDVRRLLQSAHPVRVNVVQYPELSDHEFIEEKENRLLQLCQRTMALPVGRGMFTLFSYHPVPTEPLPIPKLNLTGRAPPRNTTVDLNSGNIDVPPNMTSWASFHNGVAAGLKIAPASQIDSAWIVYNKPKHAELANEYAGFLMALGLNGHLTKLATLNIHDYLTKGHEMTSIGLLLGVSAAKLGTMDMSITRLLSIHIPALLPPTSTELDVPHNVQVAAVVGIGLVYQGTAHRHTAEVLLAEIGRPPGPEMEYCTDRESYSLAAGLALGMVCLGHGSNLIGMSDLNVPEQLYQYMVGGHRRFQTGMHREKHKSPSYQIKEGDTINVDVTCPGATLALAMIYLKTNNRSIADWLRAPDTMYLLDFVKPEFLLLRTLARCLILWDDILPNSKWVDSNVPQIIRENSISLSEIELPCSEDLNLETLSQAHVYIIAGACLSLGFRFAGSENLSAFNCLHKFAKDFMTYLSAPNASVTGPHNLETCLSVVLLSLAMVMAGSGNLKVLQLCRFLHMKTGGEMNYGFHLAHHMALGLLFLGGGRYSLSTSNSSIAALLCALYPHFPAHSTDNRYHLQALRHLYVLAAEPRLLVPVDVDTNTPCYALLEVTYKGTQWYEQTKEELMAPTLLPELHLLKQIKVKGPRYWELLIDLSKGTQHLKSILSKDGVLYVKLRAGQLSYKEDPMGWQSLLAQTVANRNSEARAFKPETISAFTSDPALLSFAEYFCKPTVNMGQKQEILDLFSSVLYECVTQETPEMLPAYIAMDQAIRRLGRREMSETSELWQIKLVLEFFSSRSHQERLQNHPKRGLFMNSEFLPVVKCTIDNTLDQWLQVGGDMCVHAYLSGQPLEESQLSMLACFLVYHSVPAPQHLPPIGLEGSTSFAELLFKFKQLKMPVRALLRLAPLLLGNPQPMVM

phosphosites on dephosphorylated recombinant APC/C after in vitro phosphorylation, by mass spectrometry: 28 phosphosites
Substance: CDK1/CKS1/cyclin B1^wt complex (CCC^wt) (from UniProt P06493 1-297; P61024 1-79; P14635 1-433)
